Target: SpA on the surface of live S. aureus TCH1516 (USA300 MRSA strain) (Staphylococcus aureus strain USA300 …, UniProt A0A0H3K686 37-508)
Experiment: cell-based or functional assay

B1: 10901_QRF (Lys274Gln, His435Arg, Tyr436Phe Fc mutant), CHO expressed IgG1 (antibody)
heavy: EVQLVQSGAEVKKPGASVKVSCKASGYTFSHYYMHWVRQAPGQGLEWMGIINPRYGSTSYAQKFQGRVTMTRDTSTSTVYMELSSLRSEDTAVYYCARDGEVGARDLGWFDPWGQGTLVTVSSASTKGPSVFPLAPSSKSTSGGTAALGCLVKDYFPEPVTVSWNSGALTSGVHTFPAVLQSSGLYSLSSVVTVPSSSLGTQTYICNVNHKPSNTKVDKKVEPKSCDKTHTCPPCPAPELLGGPSVFLFPPKPKDTLMISRTPEVTCVVVDVSHEDPEVQFNWYVDGVEVHNAKTKPREEQYNSTYRVVSVLTVLHQDWLNGKEYKCKVSNKALPAPIEKTISKAKGQPREPQVYTLPPSRDELTKNQVSLTCLVKGFYPSDIAVEWESNGQPENNYKTTPPVLDSDGSFFLYSKLTVDKSRWQQGNVFSCSVMHEALHNRFTQKSLSLSPG
light: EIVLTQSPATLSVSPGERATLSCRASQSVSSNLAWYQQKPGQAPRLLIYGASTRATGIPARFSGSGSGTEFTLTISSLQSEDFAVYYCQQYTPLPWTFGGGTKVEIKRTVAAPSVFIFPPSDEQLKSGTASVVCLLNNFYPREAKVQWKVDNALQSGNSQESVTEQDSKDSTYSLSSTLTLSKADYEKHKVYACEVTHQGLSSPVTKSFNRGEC
killing of S. aureus in opsonophagocytic killing (OPK) assay with human PMNs: ~80%

Source: US20180105584A1 (published 2018)
